Test results published in the DeepSol protein solubility set.

test: soluble on expression in E. coli; label from the status in PepcDB or PDB records

Sequence | soluble on expression in E. coli
MSLKEDYADVRNVMIMGGSRIAVRTAQYVPDYMQVKIVDNDINRCNRLTELLDDKTMIINGDGRDMDLLIEEGLKNTEAFVALTDNSETNILACLAAKRMGVEKTVAEVENIDYIGMAESLDIGTVINKKMIAASHIYQMMLDADVSNVKCLTFANADVAEFTVPAGAKITKNLIKDLGLPKGTTIGGMIRNGEGVLVTGDTLIRPGDHVVVFCLSMMIKKIEKFFNEGHHHHHH | not soluble
MSLKFIEKMLPEESPIDLLINLSRRGEAAVVLLKDAIEDYFTGKFGEGHLNRVISLERESDEIKSKLKKMYLKMKYTYFEKDDFLYIVHKADEILDVVRDIVIMLDMNRVEDVPENIKELFAELVENVLDTIRETTEAIEQLRTLAESGFSPFEKEKEEREIFDVSMEEREVDTISRNLGKKLYSLKNSMNPVDLIFLNKVARLISKIADQGKDITKRINSILREGHHHHHH | soluble
MSLKGRPIKEFSLVMDLSQAKKGADKMGYMEDLRKRVGTRPLILPASVVIILNEQDEILLQKRLDGRWGLPGGLMELGESFEETAKREILEETGLTIKNVTFLDVFSGKDLYVKVENGDEFYAVTALFMTREVAGGIQMDPRESLDLQYIALDQFPPNVTRTSKIFLDRFMELKEGHHHHHH | soluble
MSLKGYPFLDKANAPFVDRHVTKAGEIFYPWDGKRIDGFGLIGAPLSKSSISHSGASFAPTVIRKCLHAFSTYSVEEDLDLAQLKLTDLGDITMHVTDIVGSQARIEETMTKLLENEQNWQPIVLGGDHSISFPSIKAFASAKGTIGVIQFDAHHDLRNLEDGGPCNGTPFRSLLETGSLVGEHLVQIGIRDFSNSYPYRKYAEKHGVKVYTMKDVNARGLLTILDEAVAKLKRSVDVIYVSVDMDVLDQAHAPGCPAIGPGGMDSTTLLQGIFHLGKDSLVQGMDIVEVDPTLDFREMTSRAAAHVILNYLKGKCIKSEGHHHHHH | soluble
MSLKGYYSNKISLEDLNKNIEDKKEQTIYFYQTSCVHCQKVSPIVVPLAKDLNVDMKVIDIENLNEPWDKYNIQGTPTIIHFKDGKEVSRISGEQSKDKFKEWFEQTKKEGHHHHHH | soluble
MSLKHEQIINEKIIIDTSIFTNPEVYQTFGNDPTDALRSFLEIISKLKGPIFYMPQTIYEELLNFVEIKDIQVDLQMLLQQKSPKRYELTVPAFLLYELIEDVRLRIDKGLRVAETAVRETSPDTEPEAIANLRKKYRMALREGIIDSKEDVDLILLAKEMDGIMMTADTGIVKWADKLGIRYIDPRMLRSILDKLAAASEGHHHHHH | soluble
MSLKHLTEMVRQHKAGKTNGIYAVCSAHPLVLEAAIRYASANQTPLLIEATSNQVDQFGGYTGMTPADFRGFVCQLADSLNFPQDALILGGDHLGPNRWQNLPAAQAMANADDLIKSYVAAGFKKIHLDCSMSCQDDPIPLTDDIVAERAARLAKVAEETCLEHFGEADLEYVIGTEVPVPGGAHETLSELAVTTPDAARATLEAHRHAFEKQGLNAIWPRIIALVVQPGVEFDHTNVIDYQPAKASALSQMVENYETLIFEAHSTDYQTPQSLRQLVIDHFAILKVGPALTFALREALFSLAAIEEELVPAKACSGLRQVLEDVMLDRPEYWQSHYHGDGNARRLARGYSYSDRVRYYWPDSQIDDAFAHLVRNLADSPIPLPLISQYLPLQYVKVRSGELQPTPRELIINHIQDILAQYHTACEGQEGHHHHHH | soluble
MSLKICNFRAHYSPTMLSYVIIFMVEKMNYIKINLKLNNPLAFWANFSESERFFWFDPQKETFVIGCERLKAIDLEHDKFSDYTYLFHSQTFFDDIKGELWENFGGETIAFKHYFVVNKENSYTLTCDSPREIPEITIPKFKHQLTEKASDFSAWQELFYAIQKNFADGKSRKIVASRELEFTSQTSFELESIIQNLLDNNPNAFIFAYQKGKRIFLGASPEILVQKENDQLLSYALAGTFPKTMENAGQKLLTDPKNLLEHDIVVQKIKRNLLEKAETVTVGTTELMELKNVYHLRTILSAKNSELSLIDWTKQLHPTPALGGEPRHEALEFLRKHENHERGLYAAPLGLIDSKGNGTMIVGIRSALIVDKKLYAYAGCGIIPSSDALEEFRETKVKLKTILEALEGHHHHHH | not soluble
MSLKIFGTDGVRGKAGVKLTPMFVMRLGIAAGLYFKKHSQTNKILIGKDTRKSGYMVENALVSALTSIGYNVIQIGPMPTPAIAFLTEDMRCDAGIMISASHNPFEDNGIKFFNSYGYKLKEEEEKAIEEIFHDEELLHSSYKVGESVGSAKRIDDVIGRYIAHLKHSFPKHLNLQSLRIVLDTANGAAYKVAPVVFSELGADVLVINDEPNGCNINDQCGALHPNQLSQEVKKYRADLGFAFDGDADRLVVVDNLGNIVHGDKLLGVLGVYQKSKNALSSQAVVATNMSNLALKEYLKSQDLELKHCAIGDKFVSECMQLNKANFGGEQSGHIIFSDYAKTGDGLVCALQVSALVLESKQVSSVALNPFELYPQSLVNLNVQKKPPLESLKGYSALLKELDKLEIRHLIRYSGTENKLRILLEAKDEKLLESKMQELKEFFEGHLCEGHHHHHH | soluble
MSLKIIILGAGQVGGTLAENLVGENNDITVVDKNADRLRDLQDKYDLRVVNGHASHPDVLREAGAQDADMLVAVTNTDETNMAACQVAFTLFNTPNRIARIRSPQYLAEKEALFQSGAVPVDHLIAPEELVTSYIERLIQYPGALQVVSFAEEKVSLVAVKAYYGGPLVGNALSALRDHMPHIDTRVAAIFRQGRPIRPQGTTIIEADDEVFFVAASNHIRSVMSELQRLEKPYRRIMIVGGGNIGASLAKRLEQTYSVKLIEHNYQRAEQLSEQLENTIVFCGDAADQELLSEENIDQVDVFIALTNEDETNIMSAMLAKRMGAKKAMVLIQRSGYVDLVQGGVIDVAISPQQATISALLTHVRRADIVNVSSLRRGAAEAIEAIAHGDESTSKVVGRAVGDIKLPPGTTIGAIVRGEEVLIAHDRTVIEQDDHVVMFLVDKKYVPDVETLFQPSPFFLEGHHHHHH | soluble
MSLKIIPYSVNVMDEHGVIIASGEPSRLRQRHEGAILALKENRIVEIDSATANQLKGVRSGINLPISFHEQLIGVVGITGEPEEVRAYAELVKMAAELVIEHMVLIEQRQWDKRYREELINQLILRENSTESLRSMAAYLGIDLAVPRVVLIIELSQPDREALRNVMDYFENHARNHLVTFTEFNELIIIKPITLKEGKWNTRQEMGELQIFKSWAASSGFSRILVGGYFAGETGLHRSLLTARATQAMAKRQKLRSQYIFYHDHALPALLSGLSESWQVQELSRLWLQLVQHDAKGVLQQTLRTWFEHNCDLTQTAKALHIHVNTLRYRLQRCEDITHIKINELKSTLWLYIGMELQAESVSSDKLPLPGREGHHHHHH | not soluble
MSLKILFAVSECTPFVKSGGLADVAGALPKALARLGNEVAVMLPKYSQIPEPWKKRMKKQAECTVAVGWRQQYCGIEHMAENDVNYYFIDNEYYFNRDSLYGHYDDGERFAFFSRAVLEAAKVVNVQADIVHTHDWHTAMVNYLLKEEYRKHPFYERMKSVLTIHNLQFQGIFPPDVTHDLLGLEMDHFHYERLECNGFVNFMKAGIIAADHVTTVSPTYRNEIMTPYYGEQLEQVLQYREDDVTGILNGIDDTFYQPKSDPYIEAQYDSGDLACKLENKTKLQQRMGLPEKNDIPLISMVTRLTKQKGLDLVRRIMHELLEEQDIQLVVLGTGEREFEDYFRYAEFAFHEKCRAYIGFDEPLAHQIYAGSDMFLMPSKFEPCGLGQLIALQYGAIPIVRETGGLYDTVRAYQEEEGTGNGFTFSAFNAHDLKFTIERALSFYCQQDVWKSIVKTAMNADYSWGKSAKEYQRIFEQVTRSGRDVLEEGHHHHHH | soluble
MSLKITIRDIAKQAEVSISTVSFVINGKGEKMAISPAVIKKVQDVAQKLQYKPSMIASSLRTGKTRSIGLIVEDISNQFFADLARVIEDEAKNINYRVFYCSTGDDNDRSEELVQSLLQANVEGFIITPTRNLEKTISQLLKLQKPVVLIDRYFANQKVSHVVMDNYEGSYSAVKFLISKGRKNIAVVNNKSGMIQMKLREKGYVEALKEEGIYNEKYTLLLDYHSSEKTRIEEIINFFNQNKEIDAVLFCANYMGLAGLQAFRTLNYKIPNDISVISFDDHDSFKLHTPTISVIAQPIEDIAVESIQLLMSQMTNFEDFKIEKVLKKGTLIIRESVEGHHHHHH | soluble
MSLKITRIEAIPYAIPYSRPLKFASGEVSTAEHVLVRIHTDAGICGVADTPPRPYTYGETQDSIVSVVTKVFAPQLIGMDPMDRSKVQQLLGRTVNNPTAKGALDIALWDVIGISLGTPVHKLLGGFSDSMRVSHMLGFKAAAELLEEALRFRETYGIDTFKLKVGRRPLSLDVEACHVLREGLGADTEIYLDANRGWTANEAMEVLRRTEGLGLSMLEEPCDAAEAMGRRRLVQHSSIPIVGDESVPNLGDVSRELLSGGSNAICIKTARSGFTEAQQILGLCEGLGVDVTMGNQIDTQVGSLATVTFGAAFEASSRRAGELSNYLDMTDDLLAEPLEITDGAIRVRKAPGVGAAIDADKLQKYREGHHHHHH | soluble
MSLKIYESYEDLPKLKLPYGNEVFISDSTIRDGSQMPGIVLSREHKIQIYEYLHEIGIEKLEAFVFNKRDRDAVDLMFDKGYEFPEITGWARSSRADIDKILEVDGIEETGILMSVSDTHIHSKMRLSGREEAEERYLDALQYAVDHGLKTRAHLEDMTRADNYGFVFPLVKKIMEIDPDCIIRVCDTVGYGMPFMNIDEPYGIPKIIQHLKKEIGVKNIETHIHDDYGFGSASSIAGFWHGANWTSVTFLGIGERAGNSEMEKILLFLADRVEGFDKYNLEPVTRFAEFMEKELGLRVPRNKAVVGKNIFAHESGIHAAGVLKNPFNYEPYPPELVGGTRLLLIGDSSGLEVIRYKVQETLNNLLDVETVVEKDDRRLLKIQKEIQKLYDKEERVSCISDEELLAYVEKYFLYQPISDPARTGRGKLKNRGKIQEPVEEKEGHHHHHH | not soluble
MSLKKAIAYMRFSSPGQMSGDSLNRQRRLIAEWLKVNSDYYLDTITYEDLGLSAFKGKHAQSGAFSEFLDAIEHGYILPGTTLLVESLDRLSREKVGEAIERLKLILNHGIDVITLCDNTVYNIDSLNEGHHHHHH | not soluble
MSLKKIEKIIEKEIHKNKLLQALMKKNQKTDKKTVFELVKQFNQKLNLTTILKTIRTKRSTYYYWLKAENKIKAKKEKYLLQQNRIKALCLHQQYFYGHRKITDLYQKTFNEFITKKKVYTIMKKNDINCRLRIKKNKYNYKNNLKTKLKVVDNLINQDFISIAPLQKLFTDITYFKIPQGFLYFSCIIDSFNNQIIASHTSKHQNKELVLNTIQKLPLLKEPCIIHSDQGTVYQSQKVQQTLTKKGFLISMSRKATPRDNAVIENFFGQMKTILQHQHPFLFQKSTKKLKKIINHFPKFWNNQWILAKLNYSSPSQYSQNLIEGHHHHHH | not soluble
MSLKKILILFFSIILSLGMVSCSSSGDYKNVSTSKIKKALKSSDLLIKESKIFDAKDFNYFNDVEEDIIQGFVINSSEKLSLEDIIVIKTDEVDKIYKTLENYKKDMIQAPFGEGHGEKINSEIANNTIIEKAGRYVYLISAENATQIENKILNIIKEGHHHHHH | soluble
MSLKKRRTIGFLVNDIDVSYSNLVYLMTKKAAEKYDCNLIVYEGRSFNNPSMADSQHQISYSFVDNTRLDGIIITSATIACFISDEEFVEFCKRYEGIPLVSLGIVVPHATSILVDNKPGMKSQVEHLIKDHGFKKIVYISGPPTNTDSVERLEAYCEALRENDIEVDDGLIFYGDFMAQSGYDIIKEIIKNGIEYDAVVCANDEMAFGAIKGIRDLKDAYNLDLTQKGVICGFDDSITSRLVKPSLTTVRQPIEEMCFYAVEAILKKIEGEKVEDVVKLPSVLVKRESCGEGHHHHHH | soluble
MSLKLVTFDLDDTLWDTAPAIAGAEVTLRDWLAEHAPKLGAIPVEHLWEIRSRLVAEDPSFKHRISALRRRVLFHALEDAGYDPDEAQDLADRGFEVFLHGRHQVQIFPEVQPMLEILAKTFTLGVITNGNADVRRLGLADYFAFALCAEDLGIGKPDPAPFVEALRRAKVDASAAVHVGDHPKDDIAGAQQAGMRAIWYNPQGKAWDADRLPDAEIHNLSQLPEVLARWAEGHHHHHH | soluble
